Reference: US20220002423A1 (GENERAL HOSPITAL, published 2022)

What was measured:
Assay in all cases: ELISA, antibody alone
[1] = target: T1, Amino acid residues 106-125 of human TNFR2 (human)
T1 sequence (peptide): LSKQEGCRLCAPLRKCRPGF

[2] = target: T2, Amino acid residues 26-45 of human TNFR2 (human)
T2 sequence (peptide): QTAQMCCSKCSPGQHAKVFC

[3] = target: T3, Amino acid residues 34-53 of human TNFR2 (human)
T3 sequence (peptide): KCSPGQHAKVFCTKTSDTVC

[4] = target: T4, Amino acid residues 98-117 of human TNFR2 (human)
T4 sequence (peptide): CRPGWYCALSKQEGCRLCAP

Reading [1]: 2 | Affinity [2]: 1 | Reading [2]: 0.1 | Affinity [3]: 1 | Affinity [4]: 1 | Reading [4]: 2
B1: agonistic TNFR2 antibody TNFRAG1 (antibody, V domains shown)
VH: EVQLQQFGAELVKPGASVKISCKASGYTFTDYNIDWVKQSHGKSLEWIGDINPNYDSTSYSQKFRGKATLTVDKSSSTAYMELRSLTSEDTAVYYCARGNSWYFDVWGAGTTVTVSS
VL: QIVLTQSPALMSASPGEKVTMTCSASSSVRYMYWYQQKPRSSPKPWIYLTSNLASGVPARFSGSGSGTSYSLTISSMEAEDAATYYCQQWSSNPLTFGAGTKLELK
notes: the primary antibodies were detected with secondary antibodies against rodent IgG; also called monoclonal TNFR2 antibody TNFRAG1; TNFR2 agonist antibody
